Measured values as given in the RNAGym collection of RNA variant scans (doi:10.1073/pnas.2313332121).
Fewer inactive variants are shown than the library holds.

B1: TPR 5TU (parent)
chain: GGAUCUUCUCGAUCUAACAAAAAAGACAAAUCUGCCACAAAGCUUGAGAGCAUCUUCGGAUGCAGAGGCGGCAGCCUUCGGUGGCGCGAUAGCGCCAACGUUCUCAACUAUGACACGCAAAACGCGUGCUCCGUUGAAUGGAGUUUAUCAUG

Variants of: B1
Test: polymerase ribozyme fitness, log enrichment relative to wild type (log ratio); higher = more active; in vitro selection for triplet polymerase activity
In short: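 A heterodimeric triplet polymerase ribozyme had each of its subunits mutagenized by PCR into a library, which was transcribed. One round of in vitro selection, done in triplicate, annealed each library with a biotinylated primer, its partner subunit and triplets, then incubated it frozen at −7 °C before gel excision of extended constructs, streptavidin-bead capture and RT-PCR. Fitness is the logarithm of genotype enrichment relative to wild-type enrichment, based on Illumina sequencing of inputs and outputs and inverse-variance-weighted replicate averages. A base-2 logarithm is used, and genotypes were kept only with ≥10 input reads and ≥1 read per output.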

Variant | polymerase ribozyme fitness (log ratio)
G58A C87U G92A A150G | -0.884
C57G G58A A60G A137U | -4.15
C57G A98U | -0.592
G58C A115U U127C U144G | 0.143
C57U G59A G83C G84U C85A U101G G126A A142C | ≤ -4.2
G58C G84A G112U | ≤ -4.2
C57A G136A | 0.714
C57U C87U A113C A119G | -3.09
G58C U61C G70C C76G C96U A138G G140U C149G | ≤ -4.2
G58A G100U | -3.22
G58C C85U A89G G136A | -3.96
C57G G83A | -1.02
C57G G83U | -0.732
C57G G59U C85U | -1.11
C57A G133U | -3.13
G58A A142U | -0.199
C57U G84A A98U C129U A147U | -1.13
G58C A64G G65A G71A C95U U101G | ≤ -4.2
C57G G141A | 0.453
C57A U82A A121U G133C | -0.916
G58C | 0.0074
G58A | 0.338
G58A C85G G100U U144A | ≤ -4.2
C57G A89G C93A | ≤ -4.2

Variant | polymerase ribozyme fitness (log ratio)
G58A U82A A89U A119G A120U G126U | -0.897
C57G U77C G84A U134A | ≤ -4.2
C57A G88U A120C G124A C149A | ≤ -4.2
G58A C85G C118A G126C | -3.62
C57G C72G C79U C103G | ≤ -4.2
C57G G67U G92C A106C | ≤ -4.2
C57A C85U A106U C125G G136U U146G | -3.77
C57A C114U | -1.45
G58C U61A C79A A91G G117A | ≤ -4.2
C57U G94A | -0.629
C57U G94U | -0.85
C57U C114G | -2.73
C57G G58A G86U | -1.7
C57G C96A U139G | -0.754
G58A C87U C93A U130G | ≤ -4.2
C57G G74C | ≤ -4.2
C57U U127C | -2.13
C57U A64U C114U | ≤ -4.2
G58A U77C G80U U90G C93A A121G A142G | ≤ -4.2
C57U C95G | -2.96
C57U C95U | -1.55
G58C A73G G84U | -1.97
C57G C116A | 1.35
C57U A91C | ≤ -4.2

Variant | polymerase ribozyme fitness (log ratio)
C57U A91G | -2.92
G58A G83A A147C | -0.252
G58A A73G C116U | 0.431
C57U U151A | -4.18
G58A A66C G74C C131G G136U | ≤ -4.2
C57U C85A G100U A138G | ≤ -4.2
C57A G65A U82G | -0.673
C57G G58C A137C | -3.85
C57A G74U C85A U130G | ≤ -4.2
G58C G59C C96U C131A | -4.15
C57A G94A | -0.487
C57U C96G U130A | -3.15
G58A U135C | -1.39
G58A C116U | 0.457
C57G G68A G84U G126C U135G U144A | ≤ -4.2
C57U C95A G112U U151A | -4.06
C57A G59C G84U A107G A115U A137G C149U | ≤ -4.2
C57G A120U U144A | -1.24
G58A C75U C118G | -0.168
G58C C118A | -0.0404
C57U C75G | -3.63
C57U C75U | 0.237
G58C C63U A120C | -0.534
C57A G86A U146G | -1.4

Variant | polymerase ribozyme fitness (log ratio)
G58C C72U A150U | 0.398
C57U G83U A137G | -1.92
G58C G86U U104G | -1.93
C57G G94C A98G C105U | -0.386
C57G A60C | -2.4
G58A C75U | -1.82
C57A U127A | -3.56
C57U G86A | -1.16
C57U G86U | -1.78
C57U U61A A89U A106G A122G A150G | -3.73
C57A C87U | -1.52
C57A C87G | -3.18
C57U G59A G86A U134A U148A | ≤ -4.2
G58A C103U C118A C132A A138C | ≤ -4.2
C57U A73G G84C C95A C118G | -2.62
G58C C96U A98G A121G | -0.614
C57U A64C A89U G128U U148A | ≤ -4.2
C57U G140C | -3.55
G58A U102G A121U | -2.85
C57G G83C C85U A119G | -1.44
C57A U90A A91U A138U | ≤ -4.2
C57G G65C G84A U139A G140U | ≤ -4.2
G58C C93U | -1.71
C57G G84U U109G G136U | -3.84

Variant | polymerase ribozyme fitness (log ratio)
C57G G143C | -1.72
G58C A98U | -0.459
C57G G59U A64C C103G C116G A137C | ≤ -4.2
C57U C85U A89C U127A | -4.18
G58A C87U | -0.808
C57A G70U C96U | -2.27
C57U C87G | ≤ -4.2
G58C A107C | -4.06
C57A G92U C105G | -1.2
G58A G117U | 1.04
G58A C76A G80C C85U A89G U90C U101G C149A | ≤ -4.2
C57U C93U A115C A142C A147U | ≤ -4.2
G58C U135G | -3.82
C57U G94U C118U G143U | ≤ -4.2
G58A C72U C76A | -1.3
C57A G70U G80A G83C C87U C108A | ≤ -4.2
C57U C116G | 0.474
G58C C69A | -2.62
C57U U78A G80A A138G U139G | ≤ -4.2
G58C C75G C76G C85U | ≤ -4.2
G58C C87U A115G C116G A121U G136U | -4.12
G58A U82C A147C C149G | ≤ -4.2
G58C C96G | -1.88
C57G G86A C95U C99U G141U | -3.92

Variant | polymerase ribozyme fitness (log ratio)
G58C G80A C95U U127G C149G | ≤ -4.2
C57A C96U G124A A150C | -3.99
C57U C76A C93U C116A U151G | ≤ -4.2
G58A G133A | -4
G58A A73C | -1.62
C57G G84A C103U A110G | -3.52
G58C A60G C75U | 0.32
G58C G140A | -3.51
G58A G86A A110G A115C U151G | ≤ -4.2
G58C A91C C125G | ≤ -4.2
G58A G81A | -0.536
C57U G70U C79A C93G C105G G143C | ≤ -4.2
C57G C85U | -1.28
C57A G58A C79U G88U | ≤ -4.2
C57A G80C A137C G143U | ≤ -4.2
C57U G70A G83C U139G | ≤ -4.2
G58C U82G C132A | -2.83
C57A C87A C116G U127A C129U A137G C149U | ≤ -4.2
C57G G94A G141C | -0.316
C57U G58C A142C | 0.768
C57U G68A C72U G92A | ≤ -4.2
G58C G86C A89U | -3.91
G58C C72U U101G | 0.371
C57A G124U | -0.787

Variant | polymerase ribozyme fitness (log ratio)
G58C C63G C96G | -0.61
C57A G59C U146C U148A C149U | -3.99
G58A G59U G62C G67U A73U C96A U130G A138U A150G | ≤ -4.2
G58C C87U | -1.59
G58C C87A | ≤ -4.2
G58C G94C | -0.872
C57U A110G | -2.85
C57G G65A U134C | -1.35
G58A A66G C93U C99U | ≤ -4.2
G58C C87G A98G | ≤ -4.2
C57G C95U | -1.18
C57U A138U U145G | -3.98
C57A G84U | -1.29
G58A A89U C96A A115G | -1.15
C57A U139A | -3.84
G58C G84U G136U | -3.72
C57A C95U C149U | -0.536
C57G C96A | -0.472
C57U G59A G67C G94C | ≤ -4.2
C57A U82G G84U C95A | -0.701
C57U G58C A60U G88A C99A | ≤ -4.2
G58A G80U G84A G88A | ≤ -4.2
C57G A91G A147C | -3.13
